# Where two headings read alike, the source gives them in different places.
# Tests used:
# [1] = molecular target: T1, MOP1 (HIF1alpha)/ARNT heterodimer (Homo sapiens, UniProt Q16665;P27540 Q16665:1-826,P27540:1-789); test: EMSA; higher affinity than MOP1 or ARNT alone
# MOP1 (HIF1alpha)/AHR = MOP1 (HIF1alpha)/AHR (UniProt Q16665;P35869 Q16665:1-826,P35869:1-848); test: EMSA; no complex with any bHLH-PAS family response element
# MOP1 (HIF1alpha) [2] = molecular target: T2, MOP1 (HIF1alpha) (Homo sapiens, UniProt Q16665 SEQ:1-826); test: EMSA; HIF1alpha alone
# [3] = molecular target: T1, MOP1 (HIF1alpha)/ARNT heterodimer; test: EMSA
# [4] = molecular target: ARNT/HIF2alpha (transfected) (Homo sapiens, UniProt P27540;Q99814 P27540:1-789,Q99814:1-870); test: cell_activity; COS-1 luciferase
# Description: (§1) Cell Culture and Transient Transfection. Transient transfections of COS-1 cells were performed by the Lipofectamine protocol (GIBCO) as described in Example 1. To mimic hypoxia, 100 μM of cobalt chloride was included in the cell growth media and incubated at 37° C. until harvest. To monitor the transcriptional activity of the MOP3-MOP4 or MOP3-CLOCK heterodimers, a synthetic reporter was constructed by annealing phosphorylated oligonucleotides OL1116 and OL1117 and cloning them into the BglII site in the reporter plasmid pGL3p (Promega). To measure the transcriptional activity of the MOP3-HIF1α or MOP3-HIF2α heterodimers, a synthetic reporter was constructed by annealing phosphorylated oligonucleotides OL1155 and OL1156 and then cloning them as above. Luciferase levels were reported in relation to β-galactosidase activity as described in Example 1.
# (§2) To determine if MOP3 formed a transcriptionally active complex with either HIF1α or HIF2α in vivo, we constructed a synthetic reporter using six copies of the M13 element described above. […] Like ARNT, upon exposure of these transfected cells to cobalt chloride to simulate cellular hypoxia, MOP3 interacted and drove transcription in complexes with both HIF1α and with HIF2α.
# [5] = molecular target: ARNT/HIF1alpha (transfected) (Homo sapiens, UniProt P27540;Q16665 P27540:1-789,Q16665:1-826); test: cell_activity; COS-1 luciferase
# Description: as §1, §2
# ARNT = ARNT (Homo sapiens, UniProt P27540 P27540:1-789); test: EMSA; ARNT alone; details: label: 32P
# MOP1 (HIF1alpha) [6] = molecular target: T2, MOP1 (HIF1alpha); test: EMSA; MOP1 alone; details: label: 32P
# [7] = molecular target: MOP7 (HIF3alpha)/human ARNT heterodimer (Mus musculus, UniProt Q0VBL6;P27540 Q0VBL6:1-662,P27540:1-789); test: EMSA; abolished by anti-ARNT; details: label: 32P
# Description: Gel-shift assay. To generate a double strand oligonucleotide probe containing the core HRE element, 50 ng of oligonucleotide OL414 was end-labeled with [γ-³²P]ATP and was annealed with 10 fold excess of cold complementary oligonucleotide OL415. […] For expression of the bHLH-PAS proteins, mMOP7 (PL1025) and hARNT (PL87) were synthesized in a reticulocyte lysate in the presence of [³⁵S]methionine. The amount of each protein synthesized was calculated by measuring radioactivity and estimated to be approximately 1 fmol in each 10 μl gel-shift reaction. Each gel-shift assay was performed with 100,000 cpm of oligonucleotide probe per 10 μl reaction. To confirm complex identity, 1 μl of anti-ARNT sera was used to supershift the DNA bound protein complex.
# As a biochemical proof that MOP7 was a bona fide α-class HIF, we performed gel-shift and transient transfection analyses. Because HIF1α and HIF2α are known to pair with the β-class HIF subunit ARNT, we predicted that MOP7 would also pair with ARNT. Based upon sequence identity in their basic regions, we also predicted that a MOP7-ARNT would bind the HRE core sequence, TACGTG. […] First, the MOP7-ARNT-HRE complex was abolished by anti-ARNT IgGs but not by preimmune antibodies. Second, the complex was blocked by an excess of HRE containing oligonucleotide but not by oligonucleotides with a single mutation within the core HRE sequence. […]
# [8] = molecular target: T1, MOP1 (HIF1alpha)/ARNT heterodimer; test: EMSA; oligo assignment by core; supershifted by antisera; details: label: 32P
# [9] = molecular target: MOP2 (HIF2alpha)/ARNT heterodimer (Homo sapiens, UniProt Q99814;P27540 Q99814:1-870,P27540:1-789); test: EMSA; approximately equal to MOP1-ARNT; supershifted by antisera; details: label: 32P
# T1 sequence (Q16665 whole entry, chain 1 of 2): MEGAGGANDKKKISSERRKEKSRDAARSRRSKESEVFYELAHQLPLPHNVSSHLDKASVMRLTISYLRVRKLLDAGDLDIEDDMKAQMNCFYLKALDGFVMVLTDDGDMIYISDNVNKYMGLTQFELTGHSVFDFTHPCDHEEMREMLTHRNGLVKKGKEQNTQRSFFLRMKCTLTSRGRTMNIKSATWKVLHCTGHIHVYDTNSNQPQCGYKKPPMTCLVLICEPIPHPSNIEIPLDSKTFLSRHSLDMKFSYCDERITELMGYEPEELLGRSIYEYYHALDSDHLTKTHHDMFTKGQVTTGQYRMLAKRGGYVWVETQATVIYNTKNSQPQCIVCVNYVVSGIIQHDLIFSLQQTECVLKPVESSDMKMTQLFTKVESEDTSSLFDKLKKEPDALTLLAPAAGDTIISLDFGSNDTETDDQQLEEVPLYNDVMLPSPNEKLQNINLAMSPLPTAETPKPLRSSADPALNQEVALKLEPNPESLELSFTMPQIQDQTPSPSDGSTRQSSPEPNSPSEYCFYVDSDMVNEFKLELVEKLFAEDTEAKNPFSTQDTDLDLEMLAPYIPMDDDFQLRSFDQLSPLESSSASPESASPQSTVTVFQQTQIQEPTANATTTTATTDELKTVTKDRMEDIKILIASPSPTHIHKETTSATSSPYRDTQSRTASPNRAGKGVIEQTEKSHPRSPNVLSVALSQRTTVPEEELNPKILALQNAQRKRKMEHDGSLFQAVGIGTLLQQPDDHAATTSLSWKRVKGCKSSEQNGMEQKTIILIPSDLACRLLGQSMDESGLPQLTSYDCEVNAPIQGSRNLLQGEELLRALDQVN
# T1 sequence (P27540 whole entry, chain 2 of 2): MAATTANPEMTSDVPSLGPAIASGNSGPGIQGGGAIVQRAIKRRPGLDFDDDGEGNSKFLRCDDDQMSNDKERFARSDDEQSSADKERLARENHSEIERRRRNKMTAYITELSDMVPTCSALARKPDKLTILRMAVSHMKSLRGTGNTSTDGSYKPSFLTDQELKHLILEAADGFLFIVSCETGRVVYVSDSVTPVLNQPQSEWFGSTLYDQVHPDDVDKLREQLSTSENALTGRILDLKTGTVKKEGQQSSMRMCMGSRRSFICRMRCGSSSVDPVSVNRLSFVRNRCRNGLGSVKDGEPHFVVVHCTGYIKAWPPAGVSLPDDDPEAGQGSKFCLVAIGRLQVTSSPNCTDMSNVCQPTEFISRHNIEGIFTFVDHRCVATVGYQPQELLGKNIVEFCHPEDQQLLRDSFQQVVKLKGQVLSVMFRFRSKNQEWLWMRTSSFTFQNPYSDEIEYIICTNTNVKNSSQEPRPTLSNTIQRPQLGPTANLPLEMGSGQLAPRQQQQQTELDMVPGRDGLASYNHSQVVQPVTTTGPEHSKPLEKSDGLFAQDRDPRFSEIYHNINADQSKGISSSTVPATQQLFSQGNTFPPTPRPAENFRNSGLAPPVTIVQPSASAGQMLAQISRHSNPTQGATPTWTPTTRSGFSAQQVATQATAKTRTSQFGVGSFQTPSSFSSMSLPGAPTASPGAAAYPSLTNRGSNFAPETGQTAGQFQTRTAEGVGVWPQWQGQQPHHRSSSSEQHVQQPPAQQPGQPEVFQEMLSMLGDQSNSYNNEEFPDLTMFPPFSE
# Chain of MOP1 (HIF1alpha)/AHR (Q16665 whole entry, chain 1 of 2): as the sequence (Q16665 whole entry, chain 1 of 2) above
# Chain of MOP1 (HIF1alpha)/AHR (P35869 whole entry, chain 2 of 2): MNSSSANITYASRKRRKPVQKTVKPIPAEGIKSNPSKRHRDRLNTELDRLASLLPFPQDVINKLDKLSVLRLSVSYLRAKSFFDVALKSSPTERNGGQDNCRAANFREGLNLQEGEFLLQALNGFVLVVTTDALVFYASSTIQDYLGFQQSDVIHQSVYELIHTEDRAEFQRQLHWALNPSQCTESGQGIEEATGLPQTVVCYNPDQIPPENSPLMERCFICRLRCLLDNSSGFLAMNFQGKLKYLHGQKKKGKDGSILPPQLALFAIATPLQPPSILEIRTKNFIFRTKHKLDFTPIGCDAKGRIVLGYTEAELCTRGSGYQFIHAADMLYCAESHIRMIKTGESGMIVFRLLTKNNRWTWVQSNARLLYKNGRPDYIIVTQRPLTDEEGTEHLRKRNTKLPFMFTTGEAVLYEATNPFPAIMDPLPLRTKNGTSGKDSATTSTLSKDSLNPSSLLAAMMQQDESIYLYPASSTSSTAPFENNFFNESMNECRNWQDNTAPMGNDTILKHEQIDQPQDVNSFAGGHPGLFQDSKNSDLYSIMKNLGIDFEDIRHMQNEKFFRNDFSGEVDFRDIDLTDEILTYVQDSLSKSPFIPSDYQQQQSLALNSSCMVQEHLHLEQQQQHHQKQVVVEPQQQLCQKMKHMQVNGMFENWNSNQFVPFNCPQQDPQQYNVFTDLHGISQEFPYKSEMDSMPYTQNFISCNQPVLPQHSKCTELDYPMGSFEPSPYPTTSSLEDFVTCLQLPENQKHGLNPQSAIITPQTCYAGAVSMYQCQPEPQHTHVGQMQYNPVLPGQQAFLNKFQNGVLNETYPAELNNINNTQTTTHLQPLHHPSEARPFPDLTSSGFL
# T2 sequence (Q16665 whole entry): as the sequence (Q16665 whole entry, chain 1 of 2) above
# Chain of ARNT (P27540 whole entry, one chain of several): as the sequence (P27540 whole entry, chain 2 of 2) above
binder,measurement,setting,value
OL445/OL446 CACGTG E-box (dsDNA) DNA 1: TCGAGCTGGGCAGGTCACGTGGCAAGGC DNA 2: TCGAGCCTTGCCACGTGACCTGCCCAGC,binding result,[1],binds
same,binding result,MOP1 (HIF1alpha)/AHR,no binding
M13 element (dsDNA) DNA 1: GCCCTACGTGACCC DNA 2: GGGTCACGTAGGGC,binding result,MOP1 (HIF1alpha) [2],no binding
OL443/OL444 GTGCGTG (SAE) (dsDNA) DNA 1: TCGAGCTGGGCAGGGTGCGTGGCAAGGC DNA 2: TCGAGCCTTGCCACGCACCCTGCCCAGC,binding result,[3],no binding
same,binding result,MOP1 (HIF1alpha)/AHR,no binding
OL447/OL448 TTGCGTG (DRE) (dsDNA) DNA 1: TCGAGCTGGGCAGGTTGCGTGGCAAGGC DNA 2: TCGAGCCTTGCCACGCAACCTGCCCAGC,binding result,[3],no binding
same,binding result,MOP1 (HIF1alpha)/AHR,no binding
M13 reporter insert OL1155 (reporter carries six M13 copies) (dsDNA) DNA 1: GATCGGATACGTGACCATTGGTTACGTGTCCATTGGATACGTGACC DNA 2: GGTCACGTATCCAATGGACACGTAACCAATGGTCACGTATCCGATC,activity,[4],8.1 fold
same,activity,[5],14.1 fold
OL414/OL415 TACGTG (HRE) (dsDNA) DNA 1: TCGAGCTGGGCAGGGTACGTGGCAAGGC DNA 2: TCGAGCCTTGCCACGTACCCTGCCCAGC,binding result,ARNT,no binding
same,binding result,MOP1 (HIF1alpha) [6],no binding
same,binding result,[7],binds
same,binding result,[8],binds
same,binding result,MOP1 (HIF1alpha)/AHR; label: 32P,no binding
same,binding result,[9],binds

# — patent US20060084798, “cDNAs and proteins involved in hypoxia, circadian and orphan signal transduction pathways, and methods of use” (published 2006)
